# Results as given in publication PMC13344147 (Structure (London, England : 1993), 2025).
# Target: the molecule itself
# Test: cryo-EM structure
protein,measurement,value
"human CPEB3 residues 1-217 (prion-like domain 1 construct) (domain or fragment, UniProt Q8NE35 1-217, looked up) MQDDLLMDKSKTQPQPQQQQRQQQQPQPESSVSEAPSTPLSSETPKPEENSAVPALSPAAAPPAPNGPDKMQMESPLLPGLSFHQPPQQPPPPQEPAAPGASLSPSFGSTWSTGTTNAVEDSFFQGITPVNGTMLFQNFPHHVNPVFGGTFSPQIGLAQTQHHQQPPPPAPAPQPAQPAQPPQAQPPQQRRSPASPSQAPYAQRSAAAAYGHQPIMT",binding result,binds
